In article PMC9966725, “Preclinical Evaluation of a Lead Specific Chelator (PSC) Conjugated to Radiopeptides for ^203Pb and ^212Pb-Based Theranostics” (Pharmaceutics, 2023):

Tests used:
[1] = after β decay of ^212Pb; cited from earlier work
From the text: Potential ambiguity in these predictions arises due to the nature of the ^212Pb decay series. The decay of ^212Pb to ^212Bi might lead to a decoupling of the progeny ^212Bi from the chelator, adding uncertainty to the biodistribution of radioactivity, especially the α-emitters (i.e., ^212Bi, ^212Po). Using particle and heavy ion transport code system (PHITS) modeling, we have shown that α-particles contribute to more than 90% of dose deposition in 10 µm diameter single cells and 1 cm diameter micro-metastasis, while the dose from β-particles becomes more significant ...

[2] = in vivo; design: species or system mice; conditions: female, athymic nude, mouse, total radioactivity; for tissue uptake at 1 h: iv, 74 kBq
Procedure: (§1) Biodistribution of [^212Pb]Pb-PSC-PEG-T and progeny ^212Bi^3+ was determined in two animal models, including female naïve CD-1Elite mice and athymic mice bearing AR42J tumor xenografts. SSTR2-positve AR42J cells were cultured in 10% Minimum Essential Medium (MEM) supplemented with 10% fetal bovine serum (FBS), 100 units mL^−1 penicillin, and 100 units mL^−1 streptomycin 37 °C in a humidified atmosphere (5% CO2). All animal studies were performed in accordance with the Guide for the Care and Use of Laboratory Animals, according to protocols approved by the University of Iowa Animal Care and Use Committee (protocol#1122453 approved on 16 February 2022). Xenograft of AR42J tumor was developed by subcutaneous (s.c.) injection of 1 × 10^6 cells at the left shoulder of female athymic nude mice. [^212Pb]Pb-PSC-PEG-T was radiolabeled and purified as described above, and kept at room temperature away from light for 3 h before injection, to allow progeny ^212Bi to approach equilibrium before injection. Upon assay, 74 kBq [^212Pb]Pb-PSC-PEG-T (peptide mass = 5–10 pmole) were injected via tail vein (n = 2–3). Animals were euthanized at designated time points (1, 5, 24 h for naïve CD-1 mice; 1, 4 h for AR42J-bearing mice). Organs of interest and tumors were collected, rinsed, and weighed. Radioactivity of ^212Pb and ^212Bi in each sample was measured on an automated gamma counter by 238 keV and 583 keV gamma peaks, respectively. ^212Bi was purified from the generator eluate on RE2 resin and collected in pH = 6 sodium acetate as described above. Biodistribution of free ^212Bi in normal organs was determined at 2 h post injection of 74 kBq ^212Bi in naïve female CD-1 Elite mice (n = 3). Radioactivity in samples was decay corrected and data were expressed as percent injected dose per gram of tissue (%ID/g). SPECT imaging of [^203Pb]Pb-PSC-PEG-T and [^212Pb]Pb-PSC-PEG-T in female athymic nude mice bearing AR42J xenograft (n = 2) was conducted on Bioemtech Gamma-Eye Imaging system (Bioemtech, Athens, Greece) with 30–500 keV dynamic range and 1.9 mm spatial resolution. Whole body 2D-SPECT imaging of [^203Pb]Pb-PSC-PEG-T and [^212Pb]Pb-PSC-PEG-T were collected at 3 h and 24 h (n = 2) post injection of 1.8 MBq [^203Pb]Pb-PSC-PEG-T (52 MBq nmole^−1) and 3.7 MBq [^212Pb]Pb-PSC-PEG-T (20 MBq nmole^−1). SPECT images were generated by acquiring ten 30 s projections. Imaging data were reconstructed and normalized to percent of injected dose (%ID) in tumor and kidneys based on region of interest (ROI) analysis on VISUAL-Eyes software (Bioemtech, Athens, Greece). Animals were euthanized after conclusion of the study at 24 h post injection. Tumor xenografts and organs of interest were collected and weighed. Radioactivity of ^203Pb or ^212Pb was determined on automated gamma counter and normalized to %ID/g.

[3] = Radiochemical stability of radiometal complex in saline, radio-iTLC; assay type: physicochemical; conditions: for radiochemical purity of progeny: progeny of 37 MBq mL^-1 [^212Pb]Pb-PSC-PEG-T, 24 h in saline at room temperature; for radiochemical purity: single species, 7.4 MBq mL^-1, n = 2
Procedure: (§2) Using [^203Pb]Pb-PSC-PEG-T surrogate, radiochemical stability of [^203Pb]Pb-PSC-PEG-T in saline was monitored for 72 h. Similarly, single species of [^212Bi]Bi-PSC-PEG-T in saline were also monitored for 5 h (five half-lives of ^212Bi). [^203Pb]Pb-PSC-PEG-T and [^212Bi]Bi-PSC-PEG-T were radiolabeled and purified on Sep-Pak® C18 SPE columns as previously described. Next, 7.4 MBq mL^−1 of purified [^203Pb]Pb-PSC-PEG-T and [^212Bi]Bi-PSC-PEG-T were stored in saline supplemented with 5% EtOH and 1 mg mL^−1 sodium ascorbate for 72 h and 5 h, respectively, followed by analysis of radiochemical purity by radio-iTLC method. Then, radiochemical stability of [^212Pb]Pb-PSC-PEG-T and progeny [^212Bi]Bi-PSC-PEG-T were determined by radio-iTLC after storage of 37 MBq mL^−1 radiolabeled [^212Pb]Pb-PSC-PEG-T in saline for 24 h, and further confirmed by radio-HPLC analysis. In human serum, radiochemical stability of [^212Pb]Pb-PSC-PEG-T and progeny [^212Bi]Bi-PSC-PEG-T were determined after incubation of 3.7 MBq [^212Pb]Pb-PSC-PEG-T in 1 mL human serum at 37 °C for 24 h. In addition, metabolic stability of Pb-PSC-PEG-T radiopeptide in serum was determined by radio-HPLC after incubating [^203Pb]Pb-PSC-PEG-T surrogate in human serum for 55 h (five half-lives of ^212Pb). Following the incubation, serum protein was precipitated in ice-cold methanol (1:1.5 v/v) for 10 min, followed by centrifugation at 10,000× g for 10 min. The supernatant was collected and analyzed on radio-HPLC.
In radio-iTLC analysis, 0.1 M NaOAc with 1 mM DTPA was used as mobile phase for ^203Pb, ^212Pb, ^212Bi. Citric acid (0.1 M) was used as mobile phase for ^68Ga. Upon radio-iTLC analysis, 2 µL aliquot sample was spotted on the radio-iTLC strips (2 × 10 cm) and developed in the mobile phase. Radioactivity of ^203Pb and ^212Pb was measured on NaI(Tl) gamma spectroscope using 279 keV and 238 keV gamma peaks, respectively. Radioactivity of ^212Bi on radio-iTLC was measured on the Ludlum Model 3030 α-particle counter. Radio-HPLC analysis was conducted on Agilent 1260 (Agilent, Santa Clara, CA, USA). Binary mobile phases were applied to run 5–60% phase B (acetonitrile) over phase A (0.1% TFA in water) over 10 min on ZORBAX RR Eclipse XDB-C18 column (4.6 × 150 mm, 5 µm). Radioactivity of ^203Pb was measured on flow-through 105S-1 single channel radiation detector (Corroll & Ramsey, Fort Collins, CO, USA). To measure ^212Pb and ^212Bi activity on radio-HPLC, eluate was collected every 10 s on a HPLC fraction collector. Radioactivity of ^212Pb and ^212Bi in each collected eluate was measured on Cobra II automated gamma counter using 238 keV and 583 keV gamma peaks immediately after collection.

[4] = Stability of radiopeptide in saline, radio-HPLC; assay type: physicochemical; conditions: 24 h storage in saline, C18, fractions counted on gamma counter
Procedure: as §2, with “Following the incubation, serum protein was precipitated in ice-cold methanol (1:1.5 v/v) for 10 min, followed by centrifugation at 10,000× g for 10 min.” left out, “radio-HPLC. […]” for “radio-HPLC.”

[5] = In vivo biodistribution in naïve tumor-free CD-1 Elite mice; conditions: female, mouse, iv, 74 kBq
Procedure: as §1

[6] = system: SSTR2-positive AR42J xenografts; experiment: in vivo; design: species or system mice; conditions: female, athymic nude, mouse, iv, 74 kBq, 1 h
Procedure: as §1

[7] = total radioactivity, accumulation in kidneys
[8] = total radioactivity, accumulation in pancreas

## O=C(O)CN1CCN(CC(=O)O)CCN(CC(=O)O)CCN(CC(=O)O)CC1 [DOTA, 1,4,7,10-tetraazacyclododecane-1,4,7,10-tetraacetic acid]
[1]
  ^212Bi^3+ released from chelator: approximately 36%

## C[C@@H](O)[C@@H]1NC(=O)[C@H](CCCCN)NC(=O)[C@@H](Cc2c[nH]c3ccccc23)NC(=O)[C@H](Cc2ccc(O)cc2)NC(=O)[C@@H](NC(=O)[C@@H](Cc2ccccc2)NC(=O)CCOCCOCCNC(=O)CN2CCN(CC(=O)O)CCN(CC(N)=O)CCN(CC(=O)O)CC2)CSSC[C@@H](C(=O)N[C@H](CO)[C@@H](C)O)NC1=O [[^203Pb]Pb-PSC-PEG-T, metal not drawn]
[2]; activity in lungs
  tissue uptake at 24 h: 0.6 %ID/g
[2]; kidneys uptake (SPECT ROI)
  tissue uptake dose at 3 h: 8.3 %ID
  tissue uptake dose at 24 h: 0.8 %ID
[2]; tumor uptake (SPECT ROI)
  tissue uptake dose at 3 h: 1.8 %ID
  tissue uptake dose at 24 h: 1.5 %ID

## C[C@@H](O)[C@@H]1NC(=O)[C@H](CCCCN)NC(=O)[C@@H](Cc2c[nH]c3ccccc23)NC(=O)[C@H](Cc2ccc(O)cc2)NC(=O)[C@@H](NC(=O)[C@@H](Cc2ccccc2)NC(=O)CCOCCOCCNC(=O)CN2CCN(CC(=O)O)CCN(CC(N)=O)CCN(CC(=O)O)CC2)CSSC[C@@H](C(=O)N[C@H](CO)[C@@H](C)O)NC1=O [[^203Pb]Pb-PSC-PEG-T] [metal not drawn]
[3]; 72 h storage in saline with 5% EtOH and 1 mg mL^-1 sodium ascorbate, 7.4 MBq mL^-1, 1 and 5 µM precursor, n = 2
  free ^203Pb: less than 1%
[3]; 72 h storage in saline with 5% EtOH and 1 mg mL^-1 sodium ascorbate, 7.4 MBq mL^-1, regardless of PSC-PEG-T precursor concentration (1 and 5 µM), n = 2
  ^203Pb remained in PSC-PEG-T: More than 99%

## C[C@@H](O)[C@@H]1NC(=O)[C@H](CCCCN)NC(=O)[C@@H](Cc2c[nH]c3ccccc23)NC(=O)[C@H](Cc2ccc(O)cc2)NC(=O)[C@@H](NC(=O)[C@@H](Cc2ccccc2)NC(=O)CCOCCOCCNC(=O)CN2CCN(CC(=O)O)CCN(CC(N)=O)CCN(CC(=O)O)CC2)CSSC[C@@H](C(=O)N[C@H](CO)[C@@H](C)O)NC1=O [[^212Bi]Bi-PSC-PEG-T, metal not drawn]
[2]; accumulation in bones
  tissue uptake at 1 h: 2.5 %ID/g
[2]; accumulation in kidneys
  tissue uptake at 1 h: 38.1 %ID/g

## C[C@@H](O)[C@@H]1NC(=O)[C@H](CCCCN)NC(=O)[C@@H](Cc2c[nH]c3ccccc23)NC(=O)[C@H](Cc2ccc(O)cc2)NC(=O)[C@@H](NC(=O)[C@@H](Cc2ccccc2)NC(=O)CCOCCOCCNC(=O)CN2CCN(CC(=O)O)CCN(CC(N)=O)CCN(CC(=O)O)CC2)CSSC[C@@H](C(=O)N[C@H](CO)[C@@H](C)O)NC1=O [[^212Bi]Bi-PSC-PEG-T] [metal not drawn]
[3]; 1 µM PSC-PEG-T
  radiochemical purity of progeny: 91.8%
[3]; 3 µM PSC-PEG-T
  radiochemical purity of progeny: 94.8%
[3]; 5 µM PSC-PEG-T
  radiochemical purity of progeny: 97.1%
[3]; 1 h incubation in saline (5% EtOH, 1 mg mL^-1 sodium ascorbate), 1 µM PSC-PEG-T precursor
  radiochemical purity: 94.1%
[3]; 2 h incubation in saline (5% EtOH, 1 mg mL^-1 sodium ascorbate), 1 µM PSC-PEG-T precursor
  radiochemical purity: 96.1%
[3]; 3 h incubation in saline (5% EtOH, 1 mg mL^-1 sodium ascorbate), 1 µM PSC-PEG-T precursor
  radiochemical purity: 92.4%
[3]; 5 h incubation in saline (5% EtOH, 1 mg mL^-1 sodium ascorbate), 1 µM PSC-PEG-T precursor
  radiochemical purity: 92.3%
[3]; 5 h incubation in saline (5% EtOH, 1 mg mL^-1 sodium ascorbate), 5 µM PSC-PEG-T precursor
  radiochemical purity: > 98%
[4]
  radiochemical purity (radiometal remained incorporated as radiopeptide): > 95%
[5]; 1 h
  accumulation in kidneys: 45.9 ± 3.7 %ID/g
  accumulation in pancreas: 7.3 %ID/g
  activity remained in blood: less than 0.2 %ID/g
[5]; 5 h
  accumulation in kidneys: 29.8 %ID/g
  accumulation in pancreas: 3.5 %ID/g
[5]; 24 h
  residual activity in kidneys: 3.1 ± 1.4 %ID/g
[6]
  accumulation in adrenal glands: 8.1 %ID/g
  accumulation in liver: 2.1 %ID/g
  accumulation in spleen: 1.4 %ID/g

## C[C@@H](O)[C@@H]1NC(=O)[C@H](CCCCN)NC(=O)[C@@H](Cc2c[nH]c3ccccc23)NC(=O)[C@H](Cc2ccc(O)cc2)NC(=O)[C@@H](NC(=O)[C@@H](Cc2ccccc2)NC(=O)CCOCCOCCNC(=O)CN2CCN(CC(=O)O)CCN(CC(N)=O)CCN(CC(=O)O)CC2)CSSC[C@@H](C(=O)N[C@H](CO)[C@@H](C)O)NC1=O [[^212Pb]Pb-PSC-PEG-T, metal not drawn]
[5]; [7]
  tissue uptake at 1 h: 47.1 ± 7.9 %ID/g
  tissue uptake at 5 h: 26.6 %ID/g
[5]; [8]
  tissue uptake at 1 h: 5.2 %ID/g
  tissue uptake at 5 h: 2 %ID/g
[5]; total radioactivity, activity remained in blood
  tissue uptake at 1 h: < 0.2 %ID/g
[5]; total radioactivity, residual activity in kidneys
  tissue uptake at 24 h: 2.7 ± 1.2 %ID/g
